Positions count from the first letter of the chain named. In names and notes the source's numbering stands. Each block holds one binder with its values, some of them ahead of it. No end group written: not given here. *: point of attachment. RhodamineB = CCN(CC)c1ccc2c(-c3ccccc3C(=O)*)c3ccc(=[N+](CC)CC)cc-3oc2c1
Key:
[1] = molecular target: T1, NativeRPtag(large)_with_Tags_and_Cys (Thermoanaerobacter tengcongensis); assay: fluorescence anisotropy; ribose (3M)
T1 chain: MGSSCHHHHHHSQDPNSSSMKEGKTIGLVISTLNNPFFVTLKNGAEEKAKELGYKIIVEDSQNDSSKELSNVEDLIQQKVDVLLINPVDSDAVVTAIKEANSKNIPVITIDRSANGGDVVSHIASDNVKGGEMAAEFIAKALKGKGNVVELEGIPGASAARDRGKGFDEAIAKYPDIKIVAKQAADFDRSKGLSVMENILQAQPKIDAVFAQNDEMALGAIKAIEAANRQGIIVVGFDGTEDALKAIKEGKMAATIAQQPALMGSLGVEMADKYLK

[2] = molecular target: T1, NativeRPtag(large)_with_Tags_and_Cys …; assay: fluorescence anisotropy; DTT (100 mM)
[3] = molecular target: T1, NativeRPtag(large)_with_Tags_and_Cys …; assay: fluorescence anisotropy; EtOH (20%); EtOH (20%)
[4] = molecular target: T1, NativeRPtag(large)_with_Tags_and_Cys …; assay: fluorescence anisotropy; MgCl2 (3M)
[5] = molecular target: T1, NativeRPtag(large)_with_Tags_and_Cys …; assay: fluorescence anisotropy; sorbitol (3M)
[6] = molecular target: T1, NativeRPtag(large)_with_Tags_and_Cys …; assay: fluorescence anisotropy; acetone (20%)
[7] = molecular target: T1, NativeRPtag(large)_with_Tags_and_Cys …; assay: fluorescence anisotropy, buffer additive screen
[8] = molecular target: T1, NativeRPtag(large)_with_Tags_and_Cys …; assay: fluorescence anisotropy; DMSO (20%); DMSO (20%)
[9] = molecular target: T1, NativeRPtag(large)_with_Tags_and_Cys …; assay: fluorescence anisotropy; PG (50%)
[10] = molecular target: T1, NativeRPtag(large)_with_Tags_and_Cys …; assay: fluorescence anisotropy; glycerol (20%)
[11] = molecular target: T1, NativeRPtag(large)_with_Tags_and_Cys …; assay: fluorescence anisotropy; No Additive; No Additive; 100 mM Tris pH 8.0, 0.005% Tween 20 (Table 3)
[12] = molecular target: T1, NativeRPtag(large)_with_Tags_and_Cys …; assay: fluorescence anisotropy; Tween20 (2%)
[13] = molecular target: T1, NativeRPtag(large)_with_Tags_and_Cys …; assay: fluorescence anisotropy; NiCl2 (100 mM)
[14] = molecular target: T1, NativeRPtag(large)_with_Tags_and_Cys …; assay: fluorescence anisotropy; NaCl (3M)
[15] = molecular target: T1, NativeRPtag(large)_with_Tags_and_Cys …; assay: fluorescence anisotropy, competitor chase; 50 mM Tris pH 8.0, 0.005% Tween 20, no additive (Table 2)
[16] = molecular target: T1, NativeRPtag(large)_with_Tags_and_Cys …; assay: fluorescence anisotropy; BME (10%)
[17] = molecular target: T1, NativeRPtag(large)_with_Tags_and_Cys …; assay: fluorescence anisotropy; 50 mM Tris pH 8.0, 0.005% Tween 20, no additive (Table 2)
[18] = molecular target: T1, NativeRPtag(large)_with_Tags_and_Cys …; assay: fluorescence anisotropy; NH4SO4 (3M)
[19] = molecular target: T1, NativeRPtag(large)_with_Tags_and_Cys …; assay: fluorescence anisotropy; KCl (3M)
[20] = molecular target: T1, NativeRPtag(large)_with_Tags_and_Cys …; assay: fluorescence anisotropy; MnSO4 (10 mM)
[21] = molecular target: T1, NativeRPtag(large)_with_Tags_and_Cys …; assay: fluorescence anisotropy; TritonX-100 (2%)
[22] = molecular target: T1, NativeRPtag(large)_with_Tags_and_Cys …; assay: pull-down with RPtag(large) resin
[23] = molecular target: T1, NativeRPtag(large)_with_Tags_and_Cys …; assay: fluorescence anisotropy; MeOH (20%); MeOH (20%)
native RPtag(small) = molecular target: T2, native RPtag(small) (Thermoanaerobacter tengcongensis, N-terminal rhodamine); assay: fluorescence anisotropy; 1 nM rhodamine RPtag small peptide, unlabeled RPtag large titrated, 1 h; 50 mM Tris pH 8.0, 0.005% Tween20; bar of Ka = 1/Kd
T2 construct: Synthetic peptide
T2 peptide: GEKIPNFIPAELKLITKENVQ
Method: (§1) Resultant curves were fit with the equation f=y0+(ymax−y0)*(Ptot+x+Kd−sqrt((Ptot+x+Kd)\hat{ }2−4*Ptot*x))/(2*Ptot), where y0 is the baseline anisotropy, ymax is the maximum anisotropy, Ptot is the fixed concentration of labeled peptide used, x is the variable concentration of protein used, and Kd is the measured Kd. […] Buffer was 50 mM Tris pH 8.0, 0.005% tween20.

RPtag(small) l14k = molecular target: T3, RPtag(small) l14k (Thermoanaerobacter tengcongensis, N-terminal rhodamine); assay: as above
T3 construct: also called L14K RPtag(small)
T3 peptide: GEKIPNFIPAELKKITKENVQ
Method: as §1

RPtag(small) l14a = molecular target: T4, RPtag(small) l14a (Thermoanaerobacter tengcongensis, N-terminal rhodamine); assay: as above
T4 peptide: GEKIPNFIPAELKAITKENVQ
Method: as §1

RPtag(small) Nd2, Cd4 = molecular target: T5, RPtag(small) Nd2, Cd4 (Thermoanaerobacter tengcongensis); assay: fluorescence anisotropy; 2 nM rhodamine Nd2Cd4, unlabeled RPtag large variant titrated; bar of Ka = 1/Kd, right axis
T5 peptide: RhodamineB-KIPNFIPAELKLITK
Method: (§2) After the incubation, fluorescence anisotropy was measured, and the resultant curves were fit with the equation f=y0+(ymax−y0)*(Ptot+x+Kd−sqrt((Ptot+x+Kd)\hat{ }2−4*Ptot*x))/(2*Ptot), where y0 is the baseline anisotropy, ymax is the maximum anisotropy, Ptot is the fixed concentration of labeled peptide used, x is the variable concentration of protein used, and Kd is the measured Kd. […] Buffer was 50 mM Tris pH 8.0, 0.005% Tween20.

[24] = molecular target: T6, MaturePDGF-β_NterminalPeptide; assay: fluorescence anisotropy; 20 nM rhodamine PDGF-β N-terminal peptide, unlabeled RPtag large variant titrated; bar of Ka = 1/Kd, left axis
T6 construct: an N-terminal G was added and is left out of the numbering; also called PDGF-β peptide
T6 peptide: RhodamineB-GSLGSLTIAEPAMIAE
Method: as §2

[25] = molecular target: T7, NativeRPtag small for immobilization (Thermoanaerobacter tengcongensis, C-terminal Cys (GGC) coupled to SulfoLink agarose resin); assay: column binding; non-complementary tagRFP fusion applied to immobilized RPtag (small), washed, photographed
T7 construct: also called immobilized RPtag (small)
T7 peptide: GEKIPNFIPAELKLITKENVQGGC

[26] = molecular target: T8, NativeRPtag(large)_with_Tags_and_Cys (Thermoanaerobacter tengcongensis); assay: column binding; 25 mL of 1 µM tagRFP fusion applied to immobilized RPtag (large), washed with 10 mL TNE buffer, photographed
T8 construct: Unlabeled in anisotropy assays; coupled through the engineered N-terminal Cys to SulfoLink agarose or maleimide plates in column, pull-down and ELISA assays
T8 chain: T1 chain
Method: (§3) After purification of the tagged proteins, each was applied to its complementary column to evaluate binding. […] Briefly, columns were first equilibrated in 20 mM Tris pH 8.0, 150 mM NaCl, 1 mM EDTA (TNE buffer), then 25 mL of 1 μM tagged protein in TNE buffer was applied to the column at a flow rate of 1 ml/min, then washed with 10 mL of TNE buffer. Columns were cleaned with 10 mL 100 mM Glycine pH 1.5 between uses.
(§4) Briefly, columns were equilibrated in 20 mM Tris pH 8.0, 150 mM NaCl, 1 mM EDTA (TEN buffer), then 25 mL of 1 μM tagged protein in TEN buffer was applied to the column at a flow rate of 1 ml/min. Thereafter, the column was washed with 10 mL of TEN buffer, and the results recorded by photograph (FIG. 8). Columns were cleaned with 10 mL 100 mM Glycine pH 1.5 between uses.

[27] = molecular target: T8, NativeRPtag(large)_with_Tags_and_Cys; assay: column binding; non-complementary tagRFP fusion applied to immobilized RPtag (large), washed, photographed
[28] = molecular target: T7, NativeRPtag small for immobilization; assay: column binding; 25 mL of 1 µM tagRFP fusion applied to immobilized RPtag (small), washed with 10 mL TNE buffer, photographed
Method: as §3, §4

Bovine Serum Albumin = molecular target: T9, Bovine Serum Albumin (bovine, UniProt P02769 25-607); assay: fluorescence anisotropy; 50 nM N-terminal Rhodamine B RP-Tag Small, BSA titrated
T9 construct: also called BSA
T9 sequence (P02769 25-607 limits assumed): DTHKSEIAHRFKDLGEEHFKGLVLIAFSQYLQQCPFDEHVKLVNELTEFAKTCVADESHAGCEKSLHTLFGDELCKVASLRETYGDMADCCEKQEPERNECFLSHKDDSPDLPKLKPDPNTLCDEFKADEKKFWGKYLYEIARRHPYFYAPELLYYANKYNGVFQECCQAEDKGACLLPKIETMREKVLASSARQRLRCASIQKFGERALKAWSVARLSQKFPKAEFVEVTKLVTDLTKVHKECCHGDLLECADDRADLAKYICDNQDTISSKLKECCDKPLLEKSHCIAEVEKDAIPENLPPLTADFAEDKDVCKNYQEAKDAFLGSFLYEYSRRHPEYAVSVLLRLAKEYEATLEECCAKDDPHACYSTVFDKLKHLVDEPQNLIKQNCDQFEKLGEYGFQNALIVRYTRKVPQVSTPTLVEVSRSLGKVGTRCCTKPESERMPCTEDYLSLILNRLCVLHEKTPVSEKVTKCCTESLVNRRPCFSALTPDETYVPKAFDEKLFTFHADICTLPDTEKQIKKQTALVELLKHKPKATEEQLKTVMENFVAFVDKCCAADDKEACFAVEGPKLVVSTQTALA
Method: Anisotropy was then measured, and a Kd calculated by fitting the data to the equation f=y₀+(yₘₐₓ−y₀)*(Pₜₒₜ+x+Kd−sqrt((Pₜₒₜ+x+Kd)\hat{ }2-4*Pₜₒₜ*x))/(2*Pₜₒₜ), where y₀ is the baseline anisotropy, yₘₐₓ is the maximum anisotropy, Pₜₒₜ is the fixed concentration of labeled peptide used, x is the variable concentration of protein used, and Kd is the measured Kd.

Kd [1]: 42 nM
Kd [2]: 33 nM
Kd [3]: 733 nM
Kd [4]: 240 nM
Kd [5]: 16 nM
Kd [6]: 22 nM
fold increase of affinity with kosmotropic salts (NaCl, KCl) [7]: > 100 fold
Kd [8]: 140 nM
Kd [9]: 4600 nM
Kd [10]: 27 nM
Kd [11]: 14 nM
Kd [12]: 45 nM
Kd [13]: 42 nM
Kd [14]: 0.15 nM
koff [15]: > 0.0333 s⁻¹
Kd [16]: 740 nM
Kd [17]: 14 nM
Kd [18]: 2.8 nM
Kd [19]: 0.066 nM
Kd [20]: 160 nM
Kd [21]: 180 nM
resin binding capacity [22]: 200 nmol/mL
Kd [23]: 34 nM
Binder: PAELKLITK (modifications not checked) [RPtag(small) Nd8, Cd4]

binding result (native RPtag(small)): binds
binding result (RPtag(small) l14k): binds
binding result (RPtag(small) l14a): binds
binding result (RPtag(small) Nd2, Cd4): binds
binding result [24]: binds
B1: RPtag(large) f137d (designed binder)
chain: T1 chain with F137D
notes: also called F137D RPtag(large)

binding result (native RPtag(small)): binds
binding result (RPtag(small) l14k): binds
binding result (RPtag(small) l14a): binds
binding result (RPtag(small) Nd2, Cd4): binds
binding result [24]: binds
B2: f137e (designed binder)
single chain: T1 chain with F137E
notes: single mutant of RPtag large; also called RPtag(large) F137E

binding result [26]: binds
B3: Nterminally tagged NativeRPtag(small)_tagRFP (other)
chain: MGSSGEKIPNFIPAELKLITKENVQGSENLYFQGGSMVSKGEELIKENMHMKLYMEGTVNNHHFKCTSEGEGKPYEGTQTMRIKVVEGGPLPFAFDILATSFMYGSRTFINHTQGIPDFFKQSFPEGFTWERVTTYEDGGVLTATQDTSLQDGCLIYNVKIRGVNFPSNGPVMQKKTLGWEANTEMLYPADGGLEGRSDMALKLVGGGHLICNFKTTYRSKKPAKNLKMPGVYYVDHRLERIKEADKETYVEQHEVAVARYCDLPSKLGHKLNGSSGHHHHHHHH
notes: Fusion of RPtag(small), TEV site, tagRFP and 8XHis
binding result [25]: no binding (tested: 1 µM (25 mL applied))

binding result [28]: binds
B4: Nterminally_tagged_NativeRPtag(large)_tagRFP (other)
chain: MGSSSQDPNSSSMKEGKTIGLVISTLNNPFFVTLKNGAEEKAKELGYKIIVEDSQNDSSKELSNVEDLIQQKVDVLLINPVDSDAVVTAIKEANSKNIPVITIDRSANGGDVVSHIASDNVKGGEMAAEFIAKALKGKGNVVELEGIPGASAARDRGKGFDEAIAKYPDIKIVAKQAADFDRSKGLSVMENILQAQPKIDAVFAQNDEMALGAIKAIEAANRQGIIVVGFDGTEDALKAIKEGKMAATIAQQPALMGSLGVEMADKYLKGSENLYFQGGSMVSKGEELIKENMHMKLYMEGTVNNHHFKCTSEGEGKPYEGTQTMRIKVVEGGPLPFAFDILATSFMYGSRTFINHTQGIPDFFKQSFPEGFTWERVTTYEDGGVLTATQDTSLQDGCLIYNVKIRGVNFPSNGPVMQKKTLGWEANTEMLYPADGGLEGRSDMALKLVGGGHLICNFKTTYRSKKPAKNLKMPGVYYVDHRLERIKEADKETYVEQHEVAVARYCDLPSKLGHKLNGSSGHHHHHHHH
notes: Fusion of RPtag(large), TEV site, tagRFP and 8XHis
binding result [27]: no binding (tested: 1 µM (25 mL applied))

binding result (Bovine Serum Albumin): no binding
Binder: RhodamineB-GEKIPNFIPAELKLITKENVQGS (also: N-terminal label: Rhodamine B / Rhodamine 6B, also called RP-small peptide) [RP-Tag Small (Sequence 3: SEQ ID NO:13 with a glycine serine tail)]

binding result [28]: binds
B5: Cterminally_tagged_NativeRPtag(large)_tagRFP (other)
chain: MGSSHHHHHHHHGSMVSKGEELIKENMHMKLYMEGTVNNHHFKCTSEGEGKPYEGTQTMRIKVVEGGPLPFAFDILATSFMYGSRTFINHTQGIPDFFKQSFPEGFTWERVTTYEDGGVLTATQDTSLQDGCLIYNVKIRGVNFPSNGPVMQKKTLGWEANTEMLYPADGGLEGRSDMALKLVGGGHLICNFKTTYRSKKPAKNLKMPGVYYVDHRLERIKEADKETYVEQHEVAVARYCDLPSKLGHKLNGSSGENLYFQGGSSQDPNSSSMKEGKTIGLVISTLNNPFFVTLKNGAEEKAKELGYKIIVEDSQNDSSKELSNVEDLIQQKVDVLLINPVDSDAVVTAIKEANSKNIPVITIDRSANGGDVVSHIASDNVKGGEMAAEFIAKALKGKGNVVELEGIPGASAARDRGKGFDEAIAKYPDIKIVAKQAADFDRSKGLSVMENILQAQPKIDAVFAQNDEMALGAIKAIEAANRQGIIVVGFDGTEDALKAIKEGKMAATIAQQPALMGSLGVEMADKYLK
notes: Fusion of 8XHis, tagRFP, TEV site and RPtag(large)
binding result [27]: no binding (tested: 1 µM (25 mL applied))

binding result [26]: binds
B6: Cterminally_tagged_NativeRPtag(small)_tagRFP (other)
chain: MGSSHHHHHHHHGSMVSKGEELIKENMHMKLYMEGTVNNHHFKCTSEGEGKPYEGTQTMRIKVVEGGPLPFAFDILATSFMYGSRTFINHTQGIPDFFKQSFPEGFTWERVTTYEDGGVLTATQDTSLQDGCLIYNVKIRGVNFPSNGPVMQKKTLGWEANTEMLYPADGGLEGRSDMALKLVGGGHLICNFKTTYRSKKPAKNLKMPGVYYVDHRLERIKEADKETYVEQHEVAVARYCDLPSKLGHKLNGSSGENLYFQGGSGEKIPNFIPAELKLITKENVQGS
notes: Fusion of 8XHis, tagRFP, TEV site and RPtag(small)
binding result [25]: no binding (tested: 1 µM (25 mL applied))
